{"source": "patent US7291458B2", "about": "“Leptin-mediated gene-induction” (Vlaams Interuniversitair Instituut Voor Biotechnologie VZW, priority 1998, dated 2007)", "molecules": {"B1": {"name": "b-NGF: recombinant rat b-nerve growth factor (protein, UniProt P25427 122-241, looked up)", "Beta-nerve growth factor": "SSTHPVFHMGEFSVCDSVSVWVGDKTTATDIKGKEVTVLGEVNINNSVFKQYFFETKCRAPNPVESGCRGIDSKHWNSYCTTTHTFVKALTTDDKQAAWRFIRIDTACVCVLSRKAARRG"}}, "key": {"PC12-LR8 cells": {"system": "PC12-LR8 cells", "assay": "Northern blot analysis of gene induction in non-differentiated PC12-LR8 cells", "assay_type": "cell-based, rat", "conditions": "cycloheximide from 30 minutes before induction for 8.5 hours; 24 hours post induction", "experimental": "PC12-LR8 cells were treated with leptin (L), forskolin (F), or a combination of both (F/L) for the indicated length of time. Hybridization with the mouse b-actin probe was used as a control. NI stands for non-induced control cells. Sizes of transcripts are shown on the right. Exposure times to Biomax MS films were 5.5 days for LIP-I and LIP-II, and 1 day for the corresponding b-actin blot, all at −80° C.\nFIG. 6A. Induction patterns of Reg I, HIP-I and peripherin after a 12 hours stimulation with forskolin (F), leptin (L), forskolin plus leptin (F/L), hyper-IL-6 (H) or forskolin plus hyper-IL-6 (F/H). Untreated cells were analyzed as a control (NI). Exposure times to BioMax MS films for Reg I, HIP-I and b-actin were 4 days, 5 days and 3 hours, respectively; and in a separate experiment for peripherin and b-actin, 16 hours and 2 days.\nFIG. 6B Induction patterns of PAP I, PAP III, MT-II, Fnk, MRF-1, SOCS-3 and STAT-3 after stimulation with leptin (L) or hyper-IL-6 (H), compared to non-treated control cells (NI). In all cases stimulation was for 12 hours, with the exception of PAP III where stimulation was for 24 hours. b-actin hybridization patterns are shown as control. Exposure times to BioMax MS films at −80° C. were 16 hours for PAP I and 1 hour for b-actin; 4 days for PAP III and 1 hour for b-actin; 3 days for MT-II and Fnk, and2 days for b-actin; 3 days for MRF-1, 2.5 days for SOCS-3 and2 days for b-actin; and 16 hours for STAT-3 and 3 hours for b-actin.\nFIG. 8A. Northern blot analysis of the immediate early response genes. PC12-LR8 cells were left untreated (NI: non induced), or were treated with forskolin (F), leptin (L) or a combination of both (F/L) for the indicated time points. Exposure times to BioMax MS films for the different transcripts were Fnk: 6 days, MT-II: 5 days, MRF-1: 6 days, SOCS-3: 14 hours, STAT-3: 14 hours, b-actin: 5 hours.\nFIG. 8B. Immediate early response gene-set: early kinetics. PC12-LR8 cells were treated with leptin alone (L) or with a combination of leptin and forskolin (F/L) for the indicated length of time. Exposure time to BioMax MS films were: Fnk: 3 days, MT-II: 3 days, MRF-1: 3 days, SOCS-3: 2.5 days, STAT-3: 2.5 days, b-actin: 1 hour.\nFIG. 8C. Northern blot analysis of the late target genes. PC12-LR8 cells were left untreated (NI), or were treated with forskolin (F), leptin (L) or a combination of both (F/L) for the indicated length of time. Exposure times to BioMax MS films were: Ann VIII: 6 days, PAP I: 14 hours, Squalene Epoxidase: 5 days, UGT: 5 days, b-actin: 14 hours.\nPC12 cells were cultured in RPMI 1640 medium with glutamax-I (GibcoBRL) containing 10% heat-inactivated foetal calf serum (iFCS) and gentamycin (50 μg/ml). The cells were treated with medium alone or supplemented with 100 ng/ml of mouse leptin (R&D Systems), with forskolin (Sigma) at a concentration of 10 μM or with a combination both, unless otherwise indicated.\nTotal RNA was prepared from PC12 cells using RNeasy™ method (Qiagen). RNA (10 μg) was separated on a 1.5% agarose,6% formaldehyde gel, transferred to a nylon membrane (Zeta-Probe GT Genomic, Bio-Rad), and cross-linked using UV radiation. The filters were hybridized for one hour at 68° C. in ExpressHyb™ solution (Clontech) with [^32P]dCTP-labeled DNA-probes and washed 3 times with 2×SSC, 0.05% SDS at room temperature and twice in 0.1×SSC, 0.1% SDS at 50° C. Autoradiographs were obtained by exposing the blots to BioMax MS film (Kodak) with intensifying screens at −70° C. All Northern blots were normalized by hybridization using a b-actin probe."}, "ob/ob mice": {"system": "ob/ob mice", "assay": "Gene expression in leptin treated ob/ob mice (Northern blot)", "assay_type": "in vivo", "conditions": "100 μg/mouse intraperitoneally, 5 hours after treatment", "experimental": "Leptin deficient ob/ob mice were left untreated (−) or were treated with leptin (100 μg; +) intraperitoneally. Mice were killed five hours after treatment. Northern blot analysis of MT-II and Fnk in liver and PAP I expression in jejunum is shown. Hybridization with the mouse b-actin probe was used as a control and is shown below. Exposure times to BioMax MS films were 4 hours, 3 days, 4 hours and 8 hours for MT-II, Fnk, PAP I and b-actin respectively.\nIn order to assess the value of our in vitro model system for obesity, we investigated the regulation by leptin of a subset of the identified genes in vivo. Recombinant human leptin (R&D Systems) was administered intraperitoneally to leptin deficient ob/ob mice in a single dose of 100 μg leptin /mouse. Mice were killed by cervical dislocation 5 hours after treatment and total RNA was isolated from liver and jejunum. Northern blot analysis was performed using respectively MT-II, Fnk and PAP I as probe (FIG. 9).\nSpecific pathogen-free female C57BL/6J-Lep^ob mice, 9 weeks old at the beginning of the experiment further referred to as ob/ob were obtained from The Jackson Laboratory (Maine, USA). […] The endotoxin content of the antibody was 0.07 ng/mg protein, as assessed by a chromogenic Limulus amebocyte lysate assay (Coatest, Chromogenix, Stockholm, Sweden). […]"}, "[1]": {"system": "rat Pancreatitis Associated Protein I promoter", "assay": "pGL3-rPAPluc reporter in PC12-LR8 cells", "assay_type": "cell-based", "conditions": "rPAP I reporter", "experimental": "(§1) FIGS. 1C and 1D. Analysis of b-NGF and forskolin co-stimulation on leptin-induced POMC luciferase (C) or rPAP luciferase activity (D). PC12-LR8 cells were transiently transfected with pGL3-hPOMCluc or pGL3-rPAPluc reporter and treated after two days with forskolin (F: 10 μM), leptin (L: 100 ng/ml), and rat b-NGF (N: 1 ng/ml) as indicated or were left untreated (NI). 24 hours after treatment, cells were lysed and assayed for luciferase activity.\n(§2) Leptin responsiveness in PC12 cells was further investigated using a clone stably expressing the long isoform of the mouse leptin receptor (PC12-LR8, see below). After transfection of PC12-LR8 with a reporter construct based on the human POMC (proopiomelanocortin) promoter (pGL3-POMCluc) (FIG. 1 portion C), or a reporter construct based on the rat Pancreatitis Associated Protein I promoter (See below) (FIG. 1 portion D), leptin induced luciferase activity was measured. […]\n(§3) Luciferase activity was measured in transfected cells by chemiluminescence. […] 70 μl of luciferase substrate buffer (20 mM Tricine; 1.07 mM (MgCO3)4Mg(OH)25H2O; 2.67 mM MgSO4; 0.1 mM EDTA; 33.3 mM DTT; 270 μM Coenzyme A (lithium salt); 470 μM Luciferin (Duchefa); 530 μM ATP, final pH 7.8) was added to 100 μl of cell lysate and measured for 5 seconds by TopCount.NXT Chemiluminescence Counter (Packard)."}, "[2]": {"system": "human POMC (proopiomelanocortin) promoter", "assay": "pGL3-POMCluc reporter in PC12-LR8 cells", "assay_type": "cell-based, rat", "experimental": "as §1, §2, §3"}}}
{"molecule": "C[C@@H]1C[C@@H]([C@H](O)CC2CC(=O)NC(=O)C2)C(=O)[C@@H](C)C1", "note": "[cycloheximide, reference compound]", "values": [{"measurement": "rPAP I and Annexin VIII mRNA expression", "setting": "PC12-LR8 cells", "value": "strongly reduced expression"}]}
{"molecule": "Recombinant human leptin: Recombinant human leptin (R&D Systems) administered intraperitoneally to mice", "values": [{"measurement": "MT-II and Fnk mRNA expression in liver", "setting": "ob/ob mice", "value": "clear induction"}, {"measurement": "expression of PAP I in jejunum", "setting": "ob/ob mice", "value": "downregulated"}]}
{"molecule": "B1", "values": [{"measurement": "co-stimulation of leptin induced luciferase activity", "setting": "[1]; b-NGF 1 ng/ml", "value": "mimicked"}, {"measurement": "combined b-NGF and forskolin effects on leptin induced luciferase activity", "setting": "[1]", "value": "additive"}, {"measurement": "combined b-NGF and forskolin effects on leptin induced luciferase activity", "setting": "[2]", "value": "additive"}, {"measurement": "co-stimulation of leptin induced luciferase activity", "setting": "[2]; b-NGF 1 ng/ml", "value": "mimicked"}]}
